Experimental data: article doi:10.1101/419721 (bioRxiv, 2018)
No end group written: not given here.

T1: PDZ domain of ARHGEF12 (MBP-PDZ) (human, UniProt Q9NZN5 72-151)
T1 sequence: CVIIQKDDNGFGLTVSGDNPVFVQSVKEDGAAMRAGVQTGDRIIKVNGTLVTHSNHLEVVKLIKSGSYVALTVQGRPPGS

T2: PDZ domain of SYNJ2BP (MBP-PDZ) (human, UniProt P57105 13-100)
T2 sequence: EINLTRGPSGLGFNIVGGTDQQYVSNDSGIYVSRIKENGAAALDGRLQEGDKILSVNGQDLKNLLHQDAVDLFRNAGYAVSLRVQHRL


Experiments:
[1] = biological target: T1, PDZ domain of ARHGEF12 (MBP-PDZ); assay: ITC
[2] = biological target: T2, PDZ domain of SYNJ2BP (MBP-PDZ); assay: ITC

binding result [1]	binding result [2]	Binder
binds	binds	unphosphorylated RSK1 683-735 peptide (peptide) peptide: QSQLSHQDLQLVKGAMAATYSALNSSKPTPQLKPIESSILAQRRVRKLPSTTL
–	binds	phosphorylated RSK1 683-735 peptide (also: phosphorylated, sites not given here) peptide: QSQLSHQDLQLVKGAMAATYSALNSSKPTPQLKPIESSILAQRRVRKLPSTTL
